We go through 21 molecules from patent publication US20250188166A1 (BRIGHT PEAK THERAPEUTICS, published 2025).

The target of the assay is T1, IL-18R on HEK-Blue IL18R reporter cells (UniProt Q13478 19-541; O95256 20-599).
T1 sequence (looked up) 1: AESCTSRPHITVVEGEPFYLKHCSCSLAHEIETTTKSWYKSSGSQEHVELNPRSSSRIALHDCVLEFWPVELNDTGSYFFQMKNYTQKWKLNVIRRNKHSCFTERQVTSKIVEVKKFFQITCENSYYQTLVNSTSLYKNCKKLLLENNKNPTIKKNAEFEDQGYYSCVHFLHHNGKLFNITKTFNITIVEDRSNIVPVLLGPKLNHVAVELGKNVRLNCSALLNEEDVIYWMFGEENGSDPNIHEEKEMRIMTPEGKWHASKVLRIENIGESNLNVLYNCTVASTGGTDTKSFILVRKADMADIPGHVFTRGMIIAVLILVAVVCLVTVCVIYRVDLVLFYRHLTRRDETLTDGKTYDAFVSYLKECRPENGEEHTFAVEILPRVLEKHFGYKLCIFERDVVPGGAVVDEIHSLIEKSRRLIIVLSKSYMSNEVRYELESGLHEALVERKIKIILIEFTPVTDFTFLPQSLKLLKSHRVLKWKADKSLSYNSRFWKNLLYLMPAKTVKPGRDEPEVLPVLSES
T1 sequence (looked up) 2: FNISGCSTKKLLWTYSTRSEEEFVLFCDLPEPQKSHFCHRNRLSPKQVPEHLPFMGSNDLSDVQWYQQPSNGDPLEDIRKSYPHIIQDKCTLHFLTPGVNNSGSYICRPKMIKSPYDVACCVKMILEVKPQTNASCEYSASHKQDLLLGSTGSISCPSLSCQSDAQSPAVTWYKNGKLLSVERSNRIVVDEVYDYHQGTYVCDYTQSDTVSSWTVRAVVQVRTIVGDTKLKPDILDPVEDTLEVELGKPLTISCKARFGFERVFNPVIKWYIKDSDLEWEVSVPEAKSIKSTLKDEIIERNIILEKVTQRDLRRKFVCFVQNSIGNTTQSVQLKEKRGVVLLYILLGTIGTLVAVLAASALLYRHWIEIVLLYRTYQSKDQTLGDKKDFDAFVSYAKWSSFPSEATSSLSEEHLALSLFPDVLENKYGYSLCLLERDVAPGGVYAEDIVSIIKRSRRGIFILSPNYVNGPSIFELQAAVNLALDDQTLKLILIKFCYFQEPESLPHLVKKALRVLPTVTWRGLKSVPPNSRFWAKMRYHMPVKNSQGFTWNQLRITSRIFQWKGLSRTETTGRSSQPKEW
Nature of the assay: cell-based or functional assay.

Changes are numbered by the printed parent chain.

B1: IL-18 polypeptide C142 (ligand)
chain: MFGKLKSKLSIIRNLNDQVLFIDQGNRPLFEDMTDSDARDNAPRTIFIISMYADSQPRGMAVAISVKCEKISTLSAENKIISFKEMNPPDNIKDTKSDIIFFQRSVPGHDNKMQFESSSYEGYFLAAEKERDLFKLILKKEDELGDRSIMFTVQNED
Take B1: the “EC50, HEK-Blue IL18R SEAP reporter” value was found to be 0.02 pM.

B2: IL-18 polypeptide C148 (ligand)
chain: B1 chain with M1Y, F2A, K6E, A63T
Turning to B2, the “EC50, HEK-Blue IL18R SEAP reporter” value is 7.28 pM.

B3: IL-18 polypeptide C151 (ligand)
chain: B1 chain with M1Y, K6E, D35A, A63T
Take B3: the “EC50, HEK-Blue IL18R SEAP reporter” value is 13.1 pM.

B4: IL-18 polypeptide C150 (ligand)
chain: B1 chain with M1Y, K6E, T34A, A63T
On to B4, for which the “EC50, HEK-Blue IL18R SEAP reporter” value turned out to be 0.7 pM.

B5: IL-18 polypeptide C158 (ligand)
chain: B1 chain with M1Y, K6E, A63T, G108A
B5: the “EC50, HEK-Blue IL18R SEAP reporter” value is 15.6 pM.

B6: IL-18 polypeptide C162 (ligand)
chain: B1 chain with M1Y, K6E, K8E, A53K, A63T, Q103R
As for B6, the “EC50, HEK-Blue IL18R SEAP reporter” value was 2.3 pM.

B7: IL-18 polypeptide C153 (ligand)
chain: B1 chain with M1Y, K6E, D37A, A63T
As for B7, the “EC50, HEK-Blue IL18R SEAP reporter” value came out at 14.1 pM.

B8: IL-18 polypeptide C152 (ligand)
chain: B1 chain with M1Y, K6E, S36A, A63T
For the molecule B8, the “EC50, HEK-Blue IL18R SEAP reporter” value is 0.25 pM.

B9: IL-18 polypeptide C157 (ligand)
chain: B1 chain with M1Y, K6E, A63T, D132A
Regarding B9, the “EC50, HEK-Blue IL18R SEAP reporter” value is 1.95 pM.

B10: IL-18 polypeptide C156 (ligand)
chain: B1 chain with M1Y, K6E, N41A, A63T
In the case of B10, the “EC50, HEK-Blue IL18R SEAP reporter” value is 11.7 pM.

B11: IL-18 polypeptide C154 (ligand)
chain: B1 chain with M1Y, K6E, E31A, D37A, A63T
Consider B11, for which the “EC50, HEK-Blue IL18R SEAP reporter” value is 11.9 pM.

B12: IL-18 polypeptide C145 (ligand)
chain: B1 chain with M1Y, K6E, S55A, A63T
B12: the “EC50, HEK-Blue IL18R SEAP reporter” value was 3.63 pM.

B13: IL-18 polypeptide C161 (ligand)
chain: B1 chain with M1Y, K6E, K8R, A53K, A63T, Q103E
On to B13, for which the “EC50, HEK-Blue IL18R SEAP reporter” value turned out to be 2.01 pM.

B14: IL-18 polypeptide C147 (ligand)
chain: B1 chain with M1Y, K6E, D54A, A63T
B14: the “EC50, HEK-Blue IL18R SEAP reporter” value was 1 pM.

B15: IL-18 polypeptide C149 (ligand)
chain: B1 chain with M1Y, K6E, E31A, A63T
B15: the “EC50, HEK-Blue IL18R SEAP reporter” value amounted to 6.6 pM.

B16: IL-18 polypeptide C160 (ligand)
chain: B1 chain with M1Y, K6E, A63T, D110A
Consider B16, for which the “EC50, HEK-Blue IL18R SEAP reporter” value came out at 2.02 pM.

B17: IL-18 polypeptide C155 (ligand)
chain: B1 chain with M1Y, K6E, D40A, A63T
Take B17: the “EC50, HEK-Blue IL18R SEAP reporter” value is 0.52 pM.

B18: IL-18 polypeptide C144 (ligand)
chain: B1 chain with M1Y, K6E
On to B18, for which the “EC50, HEK-Blue IL18R SEAP reporter” value came out at 0.17 pM.

B19: IL-18 polypeptide C143 (ligand)
chain: B1 chain with M1Y, K6E, A63T
In the case of B19, the “EC50, HEK-Blue IL18R SEAP reporter” value was 0.98 pM.

B20: IL-18 polypeptide C146 (SEQ ID NO: 68) (ligand)
chain: B1 chain with M1Y, K6E, M51G, A63T
With B20, the “EC50, HEK-Blue IL18R SEAP reporter” value is 0.8 pM.

B21: IL-18 polypeptide C159 (ligand)
chain: B1 chain with M1Y, K6E, A63T, H109A
On to B21, for which the “EC50, HEK-Blue IL18R SEAP reporter” value stood at 19.5 pM.
